“And” between values parts separate entries of the source, which are not always exact repeats. Equal values may be shown once.
How the values were obtained:
[1] = target: recombinant human CD38 extracellular domain (ECD) fused to a his-tag (human) (UniProt P28907); assay: SPR
[2] = target: CD38 on CD38+ human cells (Daudi, Ramos, PBMCs) (human (endogenous in Daudi, Ramos and PBMCs)) (UniProt P28907); assay: flow cytometry on cells
[3] = target: human CD38 on Chinese hamster ovary (CHO) cells stably transfected to express CD38 (human) (UniProt P28907); assay: flow cytometry on cells
[4] = target: TNB-738, anti-CD38 biparatopic antibody (human (from transgenic UniRat) | human); assay: BLI

| Substance | Kd [1] [nM] | EC50 [2] | EC50 [3] [nM] | Kd [4] [nM] |
| --- | --- | --- | --- | --- |
| TNB-738, anti-CD38 biparatopic antibody (bispecific antibody) | 0.1 to 3.8 | 39.7 nM and 50.3 nM | 70.2 |  |
| recombinant human CD38 extracellular domain (ECD) fused to a his-tag (from UniProt P28907 43-300) (domain or fragment) |  |  |  | 2.48 |
